Publication PMC9700851, “Interaction kinetics between p115-RhoGEF and Gα13 are determined by unique molecular interactions affecting agonist sensitivity” (Communications Biology, 2022)
Where a chain is given by its changes, count along the chain named.

Experiments:
Test in all cases: FRET or BRET; single-cell FRET in intact HEK293T cells co-transfected with TPα receptor, Gβ1 and Gγ2; donor mTurquoise2 (or CFP) on the Gα subunit, acceptor YFP on the RhoGEF; F535/F480 emission ratio on superfusion with the agonist U-46619 and after its washout (AUC of decay over the 10 min washout); room temperature, buffer pH 7.3
[1] = biological target: Gα13-mTurq2 (mTurquoise2 between amino acids 127 and 128) (mouse) (UniProt P27601)
[2] = biological target: Gα13(135) (mTurquoise2 between amino acids 135 and 136) (mouse) (UniProt P27601)
[3] = biological target: Gα13(135)R128A (mouse) (UniProt P27601)
[4] = biological target: T1, Gα13(135)R128A (mouse, UniProt P27601 1-377, R128A)
T1 construct: Gα13, mouse; also called Gα13-R128A; source: HEK293T, transfected, in intact cells
T1 sequence (looked up): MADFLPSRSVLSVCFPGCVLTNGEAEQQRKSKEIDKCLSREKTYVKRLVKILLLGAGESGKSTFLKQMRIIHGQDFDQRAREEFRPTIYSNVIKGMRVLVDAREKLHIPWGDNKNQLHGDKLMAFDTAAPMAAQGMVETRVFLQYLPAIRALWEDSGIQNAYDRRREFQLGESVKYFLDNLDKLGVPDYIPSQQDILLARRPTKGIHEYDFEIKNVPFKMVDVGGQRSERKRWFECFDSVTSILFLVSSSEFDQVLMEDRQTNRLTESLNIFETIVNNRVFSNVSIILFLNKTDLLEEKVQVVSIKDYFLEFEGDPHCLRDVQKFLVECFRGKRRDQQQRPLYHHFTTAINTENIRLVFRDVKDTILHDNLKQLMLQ

[5] = biological target: T2, Gα13-mTurq2 (mTurquoise2 between amino acids 127 and 128) (mouse, UniProt P27601 1-377); conditions: partners not purified
T2 construct: Gα13, mouse; co-expressed with human TPα receptor, human Gβ1 and bovine Gγ2; also called Gα13(127); mTurq2-Gα13; source: HEK293T, transfected, in intact cells; not shown: mTurquoise2, internal (after residue 127), kept
T2 sequence (looked up): T1 sequence (looked up) with A128R

[6] = biological target: T3, Gα13(135) (mTurquoise2 between amino acids 135 and 136) (mouse, UniProt P27601 1-377); conditions: partners not purified
T3 construct: Gα13, mouse; Gibson assembly; also called wt-Gα13; source: HEK293T, transfected, in intact cells
T3 sequence (looked up): T1 sequence (looked up) with A128R

“Chimera1 (p115-RhoGEF amino acids 1-232 and LARG amino acids 559-1544) (from UniProt Q61210 1-232; Q9NZN5 559-1544)” showed a mean AUC of decay of the FRET signal after agonist washout (arbitrary unit) [1] of 270.

With “Chimera 2 (full length p115 with the RH domain of LARG, amino acids 370-558, instead of p115 amino acids 44-232) (from UniProt Q61210 1-43; Q9NZN5 370-558; Q61210 233-912)” the mean AUC of decay of the FRET signal after agonist washout (arbitrary unit) [1] was 274.

With “Chimera 3 (full length LARG with the RH domain of p115, amino acids 44-232, instead of LARG amino acids 370-558) (from UniProt Q9NZN5 1-369; Q61210 44-232; Q9NZN5 559-1544)” the mean AUC of decay of the FRET signal after agonist washout (arbitrary unit) [1] was 404.

“eYFP-p115-RhoGEF (from UniProt Q61210 1-920) (natural protein)” showed a mean AUC of decay of the FRET signal after agonist washout (arbitrary unit) [2] of 284, a mean AUC of decay of the FRET signal after agonist washout (arbitrary unit) [3] of 417 and a mean AUC of decay of the FRET signal after agonist washout (arbitrary unit) [1] of 331.

For “p115-E32G (from UniProt Q61210 1-920) (natural protein)”, the mean AUC of decay of the FRET signal after agonist washout (arbitrary unit) [2] was 453, the mean AUC of decay of the FRET signal after agonist washout (arbitrary unit) [1] was 468 and the mean AUC of decay of the FRET signal after agonist washout (arbitrary unit) [4] was 444.

For “p115-R (p115-RhoGEF amino acids 1-245) (from UniProt Q61210 1-245) (domain or fragment)”, the mean AUC of decay of the FRET signal after agonist washout (arbitrary unit) [1] was 343.

Work on “p115-Rshort (p115-RhoGEF amino acids 34-235) (from UniProt Q61210 34-235) (domain or fragment)” yielded a mean AUC of decay of the FRET signal after agonist washout (arbitrary unit) [1] of 444.

B1: LARG-PR (LARG amino acids 1-558) (domain or fragment, human, UniProt Q9NZN5 1-558, looked up)
chain: MSGTQSTITDRFPLKKPIRHGSILNRESPTDKKQKVERIASHDFDPTDSSSKKTKSSSEESRSEIYGLVQRCVIIQKDDNGFGLTVSGDNPVFVQSVKEDGAAMRAGVQTGDRIIKVNGTLVTHSNHLEVVKLIKSGSYVALTVQGRPPGSPQIPLADSEVEPSVIGHMSPIMTSPHSPGASGNMERITSPVLMGEENNVVHNQKVEILRKMLQKEQERLQLLQEDYNRTPAQRLLKEIQEAKKHIPQLQEQLSKATGSAQDGAVVTPSRPLGDTLTVSEAETDPGDVLGRTDCSSGDASRPSSDNADSPKSGPKERIYLEENPEKSETIQDTDTQSLVGSPSTRIAPHIIGAEDDDFGTEHEQINGQCSCFQSIELLKSRPAHLAVFLHHVVSQFDPATLLCYLYSDLYKHTNSKETRRIFLEFHQFFLDRSAHLKVSVPDEMSADLEKRRPELIPEDLHRHYIQTMQERVHPEVQRHLEDFRQKRSMGLTLAESELTKLDAERDKDRLTLEKERTCAEQIVAKIEEVLMTAQAVEEDKSSTMQYVILMYMKHLGVK
notes: LARG, human, with the PDZ and RH domains; source: HEK293T, transfected, in intact cells
With B1 the “mean AUC of decay of the FRET signal after agonist washout” value [5] was 464 arbitrary unit.

B2: LARG-Rshort (LARG amino acids 360-561) (domain or fragment, human, UniProt Q9NZN5 360-561, looked up)
chain: TEHEQINGQCSCFQSIELLKSRPAHLAVFLHHVVSQFDPATLLCYLYSDLYKHTNSKETRRIFLEFHQFFLDRSAHLKVSVPDEMSADLEKRRPELIPEDLHRHYIQTMQERVHPEVQRHLEDFRQKRSMGLTLAESELTKLDAERDKDRLTLEKERTCAEQIVAKIEEVLMTAQAVEEDKSSTMQYVILMYMKHLGVKVKE
notes: LARG, human, RH domain without the region N-terminal to it; source: HEK293T, transfected, in intact cells
B2 was tested, and the “mean AUC of decay of the FRET signal after agonist washout” value [5] was 380 arbitrary unit.

B3: eYFP-human LARG (leukemia-associated RhoGEF) (natural protein, UniProt Q9NZN5 1-1544, looked up)
chain: MSGTQSTITDRFPLKKPIRHGSILNRESPTDKKQKVERIASHDFDPTDSSSKKTKSSSEESRSEIYGLVQRCVIIQKDDNGFGLTVSGDNPVFVQSVKEDGAAMRAGVQTGDRIIKVNGTLVTHSNHLEVVKLIKSGSYVALTVQGRPPGSPQIPLADSEVEPSVIGHMSPIMTSPHSPGASGNMERITSPVLMGEENNVVHNQKVEILRKMLQKEQERLQLLQEDYNRTPAQRLLKEIQEAKKHIPQLQEQLSKATGSAQDGAVVTPSRPLGDTLTVSEAETDPGDVLGRTDCSSGDASRPSSDNADSPKSGPKERIYLEENPEKSETIQDTDTQSLVGSPSTRIAPHIIGAEDDDFGTEHEQINGQCSCFQSIELLKSRPAHLAVFLHHVVSQFDPATLLCYLYSDLYKHTNSKETRRIFLEFHQFFLDRSAHLKVSVPDEMSADLEKRRPELIPEDLHRHYIQTMQERVHPEVQRHLEDFRQKRSMGLTLAESELTKLDAERDKDRLTLEKERTCAEQIVAKIEEVLMTAQAVEEDKSSTMQYVILMYMKHLGVKVKEPRNLEHKRGRIGFLPKIKQSMKKDKEGEEKGKRRGFPSILGPPRRPSRHDNSAIGRAMELQKARHPKHLSTPSSVSPEPQDSAKLRQSGLANEGTDAGYLPANSMSSVASGASFSQEGGKENDTGSKQVGETSAPGDTLDGTPRTLNTVFDFPPPPLDQVQEEECEVERVTEHGTPKPFRKFDSVAFGESQSEDEQFENDLETDPPNWQQLVSREVLLGLKPCEIKRQEVINELFYTERAHVRTLKVLDQVFYQRVSREGILSPSELRKIFSNLEDILQLHIGLNEQMKAVRKRNETSVIDQIGEDLLTWFSGPGEEKLKHAAATFCSNQPFALEMIKSRQKKDSRFQTFVQDAESNPLCRRLQLKDIIPTQMQRLTKYPLLLDNIAKYTEWPTEREKVKKAADHCRQILNYVNQAVKEAENKQRLEDYQRRLDTSSLKLSEYPNVEELRNLDLTKRKMIHEGPLVWKVNRDKTIDLYTLLLEDILVLLQKQDDRLVLRCHSKILASTADSKHTFSPVIKLSTVLVRQVATDNKALFVISMSDNGAQIYELVAQTVSEKTVWQDLICRMAASVKEQSTKPIPLPQSTPGEGDNDEEDPSKLKEEQHGISVTGLQSPDRDLGLESTLISSKPQSHSLSTSGKSEVRDLFVAERQFAKEQHTDGTLKEVGEDYQIAIPDSHLPVSEERWALDALRNLGLLKQLLVQQLGLTEKSVQEDWQHFPRYRTASQGPQTDSVIQNSENIKAYHSGEGHMPFRTGTGDIATCYSPRTSTESFAPRDSVGLAPQDSQASNILVMDHMIMTPEMPTMEPEGGLDDSGEHFFDAREAHSDENPSEGDGAVNKEEKDVNLRISGNYLILDGYDPVQESSTDEEVASSLTLQPMTGIPAVESTHQQQHSPQNTHSDGAISPFTPEFLVQQRWGAMEYSCFEIQSPSSCADSQSQIMEYIHKIEADLEHLKKVEESYTILCQRLAGSALTDKHSDKS
notes: LARG (leukemia-associated RhoGEF), human; also called YFP-LARG; wt-LARG; source: HEK293T, transfected, in intact cells; not shown: YFP, N-terminal, kept
With B3 the “mean AUC of decay of the FRET signal after agonist washout” value [5] was 448 arbitrary unit, the “mean AUC of decay of the FRET signal after agonist washout” value [6] was 462 arbitrary unit and the “mean AUC of decay of the FRET signal after agonist washout” value ([4]; partners not purified) was 495 arbitrary unit.
